The subject of data set [1] is the four selected A2M variants.
Data set [2] deals with T1, Tagged wild-type human A2M.
T1 sequence: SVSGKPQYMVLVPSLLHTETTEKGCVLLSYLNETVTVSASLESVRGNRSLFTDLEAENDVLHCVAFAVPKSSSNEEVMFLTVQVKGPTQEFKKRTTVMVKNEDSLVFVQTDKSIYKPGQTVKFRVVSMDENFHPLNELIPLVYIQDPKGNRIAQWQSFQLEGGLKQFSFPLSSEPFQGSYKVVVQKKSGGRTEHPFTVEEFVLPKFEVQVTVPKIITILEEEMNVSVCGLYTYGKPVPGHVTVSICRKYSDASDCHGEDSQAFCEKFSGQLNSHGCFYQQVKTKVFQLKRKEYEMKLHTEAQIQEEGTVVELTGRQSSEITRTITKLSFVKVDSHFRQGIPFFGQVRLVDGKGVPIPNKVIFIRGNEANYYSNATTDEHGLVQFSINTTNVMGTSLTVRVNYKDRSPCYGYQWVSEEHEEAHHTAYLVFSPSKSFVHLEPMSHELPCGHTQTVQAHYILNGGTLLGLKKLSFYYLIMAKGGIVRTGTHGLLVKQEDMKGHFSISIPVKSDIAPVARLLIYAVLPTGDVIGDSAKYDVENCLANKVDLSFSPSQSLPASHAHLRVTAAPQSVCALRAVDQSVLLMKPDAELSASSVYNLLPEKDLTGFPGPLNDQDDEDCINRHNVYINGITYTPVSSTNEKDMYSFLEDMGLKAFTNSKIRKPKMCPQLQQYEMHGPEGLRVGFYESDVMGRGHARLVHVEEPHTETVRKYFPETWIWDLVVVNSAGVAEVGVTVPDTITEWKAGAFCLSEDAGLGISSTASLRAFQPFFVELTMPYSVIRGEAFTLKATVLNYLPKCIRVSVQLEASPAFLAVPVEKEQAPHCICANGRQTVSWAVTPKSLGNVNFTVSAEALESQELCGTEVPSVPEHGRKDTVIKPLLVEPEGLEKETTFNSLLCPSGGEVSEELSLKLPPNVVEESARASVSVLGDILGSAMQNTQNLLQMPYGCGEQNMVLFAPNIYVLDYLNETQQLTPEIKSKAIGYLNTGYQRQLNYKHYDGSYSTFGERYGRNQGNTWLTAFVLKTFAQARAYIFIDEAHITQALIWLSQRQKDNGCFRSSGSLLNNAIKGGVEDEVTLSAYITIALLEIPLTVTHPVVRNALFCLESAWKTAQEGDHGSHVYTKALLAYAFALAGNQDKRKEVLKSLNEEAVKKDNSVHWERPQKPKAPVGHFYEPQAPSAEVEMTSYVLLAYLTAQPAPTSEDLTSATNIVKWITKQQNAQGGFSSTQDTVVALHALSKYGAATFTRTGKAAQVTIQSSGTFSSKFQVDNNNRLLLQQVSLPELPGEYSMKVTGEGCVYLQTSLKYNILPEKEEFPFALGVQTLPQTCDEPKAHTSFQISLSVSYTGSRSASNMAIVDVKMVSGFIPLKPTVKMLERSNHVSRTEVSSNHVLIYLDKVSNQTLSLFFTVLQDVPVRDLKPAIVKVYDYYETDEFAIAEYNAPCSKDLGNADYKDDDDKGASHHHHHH

In the case of chymotrypsin, the “slope of FTC-casein digestion (fluorescent proteolysis assay)” value in data set [1] is “the variants are all capable of inhibiting various proteases, including trypsin and chymotrypsin approximately equally, to the wild-type A2M”; in data set [2], “the variants are all capable of inhibiting various proteases, including trypsin and chymotrypsin approximately equally, to the wild-type A2M”.

The record behind these values is patent publication US20230250154.
